Test results from patent US20240101645A1 (HENRY M JACKSON FOUNDATION FOR THE ADVANCEMENT OF MILITARY …, published 2024).

T1: HCoV-229E spike antigens (bead panel) (HCoV-229E, UniProt P15423 16-1115)
T1 sequence: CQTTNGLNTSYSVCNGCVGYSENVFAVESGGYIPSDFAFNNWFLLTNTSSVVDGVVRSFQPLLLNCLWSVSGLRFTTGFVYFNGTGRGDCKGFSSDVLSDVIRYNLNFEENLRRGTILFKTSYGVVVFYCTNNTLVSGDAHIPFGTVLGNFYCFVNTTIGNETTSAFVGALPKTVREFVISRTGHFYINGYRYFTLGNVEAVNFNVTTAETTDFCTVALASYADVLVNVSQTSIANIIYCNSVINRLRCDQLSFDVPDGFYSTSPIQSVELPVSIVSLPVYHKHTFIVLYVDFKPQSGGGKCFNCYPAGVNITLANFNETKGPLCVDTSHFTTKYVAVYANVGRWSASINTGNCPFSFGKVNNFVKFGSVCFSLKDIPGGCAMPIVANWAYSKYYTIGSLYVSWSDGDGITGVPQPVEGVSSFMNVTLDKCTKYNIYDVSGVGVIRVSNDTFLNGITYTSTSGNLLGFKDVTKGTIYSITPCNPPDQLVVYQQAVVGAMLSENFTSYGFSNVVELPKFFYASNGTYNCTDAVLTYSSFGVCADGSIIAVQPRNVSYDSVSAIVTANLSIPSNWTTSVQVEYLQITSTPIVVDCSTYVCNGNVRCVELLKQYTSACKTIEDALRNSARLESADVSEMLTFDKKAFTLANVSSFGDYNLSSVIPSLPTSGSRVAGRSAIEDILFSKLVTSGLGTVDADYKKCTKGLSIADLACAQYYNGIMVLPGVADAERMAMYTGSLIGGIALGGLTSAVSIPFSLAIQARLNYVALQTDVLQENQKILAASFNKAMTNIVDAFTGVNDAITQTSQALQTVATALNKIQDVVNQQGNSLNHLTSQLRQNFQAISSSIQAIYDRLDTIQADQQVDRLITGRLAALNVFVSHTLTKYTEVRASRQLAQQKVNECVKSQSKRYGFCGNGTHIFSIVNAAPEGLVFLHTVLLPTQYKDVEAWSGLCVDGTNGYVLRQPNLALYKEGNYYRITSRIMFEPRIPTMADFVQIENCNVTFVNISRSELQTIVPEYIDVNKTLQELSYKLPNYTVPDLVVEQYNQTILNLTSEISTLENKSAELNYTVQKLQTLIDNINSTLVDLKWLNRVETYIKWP

T2: HCoV-OC43 spike antigens (bead panel) (HCoV-OC43, UniProt P36334 14-1297)
T2 sequence: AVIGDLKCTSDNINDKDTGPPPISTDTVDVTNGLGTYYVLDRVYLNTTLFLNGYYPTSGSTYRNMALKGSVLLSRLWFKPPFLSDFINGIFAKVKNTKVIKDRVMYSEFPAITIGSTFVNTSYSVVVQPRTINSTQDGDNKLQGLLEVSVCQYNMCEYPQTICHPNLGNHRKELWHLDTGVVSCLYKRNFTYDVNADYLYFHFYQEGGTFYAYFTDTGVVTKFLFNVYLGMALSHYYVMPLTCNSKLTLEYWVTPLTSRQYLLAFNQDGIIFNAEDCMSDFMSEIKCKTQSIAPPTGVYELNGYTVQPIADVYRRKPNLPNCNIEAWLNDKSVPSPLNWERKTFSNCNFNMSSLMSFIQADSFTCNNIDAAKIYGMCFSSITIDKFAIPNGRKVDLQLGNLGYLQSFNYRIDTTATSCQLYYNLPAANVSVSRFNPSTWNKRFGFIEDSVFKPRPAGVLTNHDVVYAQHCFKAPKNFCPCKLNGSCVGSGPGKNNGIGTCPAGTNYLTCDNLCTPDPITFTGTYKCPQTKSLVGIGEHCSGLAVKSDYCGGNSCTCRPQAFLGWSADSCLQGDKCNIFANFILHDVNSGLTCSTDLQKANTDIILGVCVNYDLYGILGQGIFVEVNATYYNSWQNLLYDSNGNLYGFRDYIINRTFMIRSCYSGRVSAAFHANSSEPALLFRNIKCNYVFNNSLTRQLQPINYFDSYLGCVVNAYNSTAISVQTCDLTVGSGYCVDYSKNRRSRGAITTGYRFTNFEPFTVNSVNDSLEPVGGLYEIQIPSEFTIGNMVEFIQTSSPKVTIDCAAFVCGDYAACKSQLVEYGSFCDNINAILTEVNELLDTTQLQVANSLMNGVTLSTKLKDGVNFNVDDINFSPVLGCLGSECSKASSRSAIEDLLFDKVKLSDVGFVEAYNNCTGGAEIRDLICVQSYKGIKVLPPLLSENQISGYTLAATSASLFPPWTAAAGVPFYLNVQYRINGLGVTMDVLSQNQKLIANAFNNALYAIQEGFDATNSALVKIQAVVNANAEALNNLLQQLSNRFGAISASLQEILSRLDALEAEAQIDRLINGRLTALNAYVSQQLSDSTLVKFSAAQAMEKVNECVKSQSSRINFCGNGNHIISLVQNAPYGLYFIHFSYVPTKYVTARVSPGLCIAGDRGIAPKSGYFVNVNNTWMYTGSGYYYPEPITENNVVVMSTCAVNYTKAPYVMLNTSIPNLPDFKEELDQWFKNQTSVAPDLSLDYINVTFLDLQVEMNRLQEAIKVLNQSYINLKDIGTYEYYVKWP

B1: COV_2205 (antibody, V domains shown)
VH: EVQLVESGGGLVKPGGSLRLSCAASGFTFSDYYMIWIRQAPGEGLEWVSYISSRSSYTNYADSVKGRFTISRDNARNSLYLQMNSLRAEDTAVYYCARGQHDLLTGYYSWAYFDYWGQGTLVTVSS
VL: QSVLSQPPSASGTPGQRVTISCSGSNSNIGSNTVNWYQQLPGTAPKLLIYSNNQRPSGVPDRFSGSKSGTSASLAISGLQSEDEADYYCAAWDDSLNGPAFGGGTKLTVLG
notes: human IgG1
B2: COV_2125 (antibody, V domains shown)
VH: EVQLVESGGGVVQPGRSLRLSCAASGFTFSSYGMHWVRQAPGKGLEWVAVISYDGSNKYYADSVKGRFTISRDNSKNTLSLQMNSLRPEDTAVYYCAKDSPYYYDSSGYYPGYFQDWGQGSLVTVSS
VL: DIQMTQSPSSLSASIGDRVTITCRASQTISDYLNWYQQKPGKAPNLLIYAASTLQSGVPSRFSGSGSGTDFTLTISSLQPEDFATYYCQQSYITPRTFGQGTKVEIK
notes: human IgG1
B3: COV_1144 (antibody, V domains shown)
VH: EVQLVESGGGLVQPGGSLRLSCAASGFTFRSFWMSWVRQAPGKGLEWVANIKEDASEKHYVDPVKGRFTISRDNAKNSLYLQLNSLRAEDMAVYYCARVGRGYCTNGLCYTAFEYWGQGTLVTVSS
VL: DIQMTQSPSSLSASVGDRVTITCRTSQSISNYLNWYQQKPGKAPKLLIYAASSLQSGVPSRFSGSGSGTDFTLTISSLQPEDFATYYCQQSYSTAWTFGQGTKVEIRR
notes: human IgG1
B4: COV_1145 (antibody, V domains shown)
VH: QVQLVESGGGVVQPGRSLRLSCAASGFTFSSYGMHWVRQAPGKGLEWVAVIWYDGSNKYYADSVKGRFTISRDNSKNTLYLQMNSLRVEDTAVYYCAREGQLGATGLDCWGQGTLVSVSS
VL: SYELTQPPSVSVSPGQTARITCSGDALPKKYAYWYQQKSGQAPVLVIYEDSKRPSGIPERFSGSSSGTMATLTISGAQVEDEADYYCYSTDNSGNHWVFGGGTKLTVLG
notes: human IgG1
B5: COV_2215 (antibody, V domains shown)
VH: EVQLVESGGGLVKPGGSLRLSCAASGFTFSHAWMSWVRQAPGKGLEWVGRIKSKTDGGTADYAAPVKGRFTISRDDSKNTLYLQMNSLKTEDTAVYYCATIRYYYDSSAYLNDAFDIWGQGTMVTVSS
VL: SYELTQPPSVSVSPGQTARITCSGDALPKKYAYWYQQKSGQAPVLVIYEDSKRPSGIPERFSGSSSGTMATLTISGAQVEDEADYYCYSTDSSGNHRVFAGGTKLTVLG
notes: human IgG1
B6: COV_3069 (antibody, V domains shown)
VH: EVQLVESGGGLVKPGGSLRLSCAASGFTFGSYTMNWVRQAPGKGLEWVSSIDTTSSSIYYADSLKGRFAISRDSAKNSLYLQMNRLRAEDTAVYYCARGNGHSYDSSGYHYGMYFDYWGQGTLVTVSS
VL: DIQMTQSPSTLSASVGDRVTITCRASQSISRWLAWYQQKPGKAPKLLIYEVSSLENGVPSRFSGSRSGTEFTLTISSLQPDDFAIYYCQQYNTYSRTFGQGTKVEIKR
notes: human IgG1
B7: COV_2032 (antibody, V domains shown)
VH: EVQLVESGGGLVQPGGSLRLSCAASGFTFTTYWMHWVRQAPGKGLVWVSRIKTDGSSTNYADSVKGRFTISRDNAKNMLYLQMNSLRAEDTAVYYCAREGPVSIVYFDYWGQGTLVTVSS
VL: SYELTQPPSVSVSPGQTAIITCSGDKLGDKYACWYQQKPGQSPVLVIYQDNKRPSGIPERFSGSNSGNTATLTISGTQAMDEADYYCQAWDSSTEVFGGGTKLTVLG
notes: human IgG1
B8: COV_1149 (antibody, V domains shown)
VH: QVQLVESGGGVVQPGRSLRLSCAASGFTFSSYGMHWVRQAPGKGLEWVAVISYDGSNKYYADSVKGRFTISRDNSKNTLYLQMNSLRAEDTAVYYCAKTGGGYSYGLGNVWGQGTLVTVSS
VL: QSALTQPASVSGSPGQSITISCTGTSSDVGGYNYVSWYQQHPGKAPKLMIYDVSNRPSGVSNRFSGSKSGNTASLTISGLQAEDEADYYCSSYTSSSTLVVFGGGTKLTVLG
notes: human IgG1
B9: COV_3129 (antibody, V domains shown)
VH: QVQLQQWGAGLLKPSDTLSLTCAANGGGSFSGYYLGYIRQSPGKGLEWIGEINHNGGTNYNPSLKSRVTISGDTSKNQFSLKLSSVTAADTAIYYCARSRDSSLGDAVWYEYWGQGTLITVSS
VL: EIVLTQSPATLSLSPGERATLSCRASQSVDIYLAWYQQRPGQAPRLLISDASKRATGVPARFSGSGSGTDFTLTINSLEPEDFAIYYCQQRRDWPINFGQGTRLEIKR
notes: human IgG1
B10: COV_2169 (antibody, V domains shown)
VH: EVQLVESGGGVVQPGRSLRLSCAASGFTFSRYAMHWVRQAPGKGLEWVAVISYEGSNKYYADSVKGRFTISRNNSNNTLSLQMNSLRPDDTAVYYCVRSGGHYFDAFDLWGQGTMVTVSS
VL: EIVLTQSPGTLSLSPGERATLSCRASQSVSRNYVAWYQQKPGQAPRLLIYGASSRATGIPDRFSGSGSGTDFTLTISRLEPEDFALYYCQQYGSSYTFGQGTKLEIKR
notes: human IgG1
B11: COV_1177 (antibody, V domains shown)
VH: QVQLVESGGGVVQPGRSLRLSCAASGFTFSSYGMHWVRQAPGKGLEWVAVIWYDGSNKYYADSVKGRFTISRDNSKNTLYLQMNSLRAEDTAVYYCARDPLGAVAGYFDYWGQGTLVTVSS
VL: SYVLTQPPSVSVAPGQTARITCGGNNIGSKSVHWYQQKPGQAPVLVVYDDSDRPSGIPERFSGSNSGNTATLTISRVEAGDEADYYCQVWDSSSDHHWVFGGGTKLTVLG
notes: human IgG1
B12: COV_1184 (antibody, V domains shown)
VH: QVQLQQWGAGLLKPSETLSLTCAVYGGSFSGYYWSWIRQPPGKGLEWIGEINHSGNTTYNPSLKSRVTISVDTSKNQFSLKLSSVTAADTAVYYCARGLVITYYYDSSGKPFDPWGQGTLVTVSS
VL: not shown
notes: human IgG1
B13: COV_1201 (antibody, V domains shown)
VH: QVQLVQSGAEVKKPGASMKVSCKASGYTFTGYYIHWVRQAPGQGLEWMGRINPNSGGTNYAQKFQGRVTMTRDTSISTAYMELSRLRSDDTAVYYCAREYYYVPYGMDVWGQGTTVTVSS
VL: QSALTQPASVSGSPGQSITISCTGTSSDVGGYNFVSWYQHHPGKAPKLMIYEVSNRPSGVSNRFSGSKSGNTASLTISGLQAEDEADYYCSSYTSSSTYVFGTGTKVTVL
notes: human IgG1

Columns and labels:
[1] = target: T1, HCoV-229E spike antigens (bead panel); experiment: multiplex bead assay
[2] = target: T2, HCoV-OC43 spike antigens (bead panel); experiment: multiplex bead assay
[3] = target: SARS-CoV-2 S on pseudovirions (Wuhan Hu-1 / IL1/2020, last 18 amino acids removed) (SARS-CoV-2, UniProt P0DTC2 14-1273); experiment: cell-based or functional assay

Row | Binder | binding result [1] | binding result [2] | Mean IC50, pSV neutralization [3] [µg/ml] | Mean IC80, pSV neutralization [3] [µg/ml]
1 | B1 | no binding | no binding |  | 
2 | B2 | no binding | no binding |  | 
3 | B3 | no binding | no binding | ≥ 25 | ≥ 25
4 | B4 | no binding | no binding |  | 
5 | B5 | no binding | no binding |  | 
6 | B6 | no binding | no binding |  | 
7 | B7 | no binding | no binding |  | 
8 | B8 | no binding | no binding | ≥ 25 | ≥ 25
9 | B9 | no binding | no binding |  | 
10 | B10 | no binding | no binding |  | 
11 | B11 | no binding | no binding |  | 
12 | B12 | no binding | no binding |  | 
13 | B13 | no binding | no binding | 0.09 | 0.3
